# Experimental data: patent publication US20090258375A1
# Where two headings read alike, the source gives them in different places.
# Key:
# [1] = target: T1, fluorescent cathepsin D/E substrate MOCac-Gly-Lys-Pro-Ile-Leu-Phe-Phe-Arg-Leu-Lys(Dnp)-D-Arg-NH2; assay: cell-based or functional assay
# T1 sequence (peptide, N-terminal MOCac; Lys(Dnp); D-Arg at the C-terminus; C-terminal amide (NH2)): GKPILFFRLK
# [2] = test system: T1, fluorescent cathepsin D/E substrate MOCac-Gly-Lys-Pro-Ile-Leu-Phe-Phe-Arg-Leu-Lys(Dnp)-D-Arg-NH2
# [3] = target: bovine serum albumin (bovine) (UniProt P02769); assay: immuno-trap protease assay, 1 ug rabbit immunoglobulins coated, background control, 50 ng blank column
# [4] = target: control insect cell lysate (sf9 cells infected with empty Baculovirus); assay: immuno-trap protease assay, control lysate
# [5] = target: recombinant bovine PAG-12 (fusion protein with the FLAG peptide) (bovine); assay: immuno-trap protease assay on crude insect cell lysate
# [6] = target: recombinant bovine PAG-2 (fusion protein with the FLAG peptide) (bovine) (UniProt Q28057); assay: as above
# [7] = target: recombinant porcine PAG-2 (FLAG-tagged) (porcine) (UniProt Q29079); assay: as above
# [8] = target: control insect cell lysate (sf9 cells infected with empty Baculovirus); assay: immuno-trap protease assay, control lysate (second row)
# [9] = target: recombinant bovine PAG-12 (fusion protein with the FLAG peptide) (bovine); assay: immuno-trap protease assay on crude insect cell lysate (second row)
# [10] = target: recombinant bovine PAG-2 (fusion protein with the FLAG peptide) (bovine) (UniProt Q28057); assay: as above
# [11] = target: recombinant porcine PAG-2 (FLAG-tagged) (porcine) (UniProt Q29079); assay: as above
# [12] = target: recombinant porcine PAG-2 (FLAG-tagged) (porcine) (UniProt Q29079); assay: immuno-trap protease assay, anti-FLAG with poPAG-2 lysate as positive control
# [13] = target: recombinant equine-TSH-beta (equine) (UniProt Q28376); assay: immuno-trap protease assay, anti-FLAG with TSH-beta; TSH-beta has no proteolytic activity, so the reading is background and does not tell whether it was trapped
# [14] = target: T2, fluorescent cathepsin D/E substrate MOCac-Gly-Lys-Pro-Ile-Leu-Phe-Phe-Arg-Leu-Lys(Dnp)-D-Arg-NH2
# T2 chain: GKPILFFRLK
# Sequence of UniProt P02769 (P02769 25-607 limits assumed): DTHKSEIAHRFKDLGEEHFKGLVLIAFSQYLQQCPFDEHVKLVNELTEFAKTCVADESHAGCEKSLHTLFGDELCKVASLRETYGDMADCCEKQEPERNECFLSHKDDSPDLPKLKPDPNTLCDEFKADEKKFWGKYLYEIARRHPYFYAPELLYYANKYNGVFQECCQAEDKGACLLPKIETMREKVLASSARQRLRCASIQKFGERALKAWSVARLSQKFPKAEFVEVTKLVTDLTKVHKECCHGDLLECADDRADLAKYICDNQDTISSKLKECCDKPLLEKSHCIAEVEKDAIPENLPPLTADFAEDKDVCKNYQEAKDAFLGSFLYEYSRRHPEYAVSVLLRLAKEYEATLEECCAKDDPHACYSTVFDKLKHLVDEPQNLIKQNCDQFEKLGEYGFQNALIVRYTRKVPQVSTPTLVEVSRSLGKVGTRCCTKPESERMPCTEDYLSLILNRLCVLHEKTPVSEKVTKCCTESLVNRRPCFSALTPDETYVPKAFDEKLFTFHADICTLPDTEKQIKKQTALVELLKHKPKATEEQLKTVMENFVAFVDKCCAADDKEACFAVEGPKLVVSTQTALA
molecule,measurement,setting,value
recombinant boPAG-20 (FLAG epitope tag fusion),"relative fluorescent product release, anti-FLAG immuno-trap protease assay, pH 3.0 (relative fluorescence)",[1],38600
same,"relative fluorescent product release, anti-FLAG immuno-trap protease assay, pH 4.0 (relative fluorescence)",[1],31300
same,"relative fluorescent product release, anti-FLAG immuno-trap protease assay, pH 5.0 (relative fluorescence)",[1],31400
same,"relative fluorescent product release, anti-FLAG immuno-trap protease assay, pH 6.0 (relative fluorescence)",[1],24500
same,"relative fluorescent product release, anti-FLAG immuno-trap protease assay, pH 7.0 (relative fluorescence)",[1],23800
recombinant equine-TSH-beta (from UniProt Q28376 21-138),"relative fluorescent product release, anti-FLAG immuno-trap protease assay, pH 3.0 (negative control) (relative fluorescence)",[1],38300
same,"relative fluorescent product release, anti-FLAG immuno-trap protease assay, pH 4.0 (negative control) (relative fluorescence)",[1],33900
same,"relative fluorescent product release, anti-FLAG immuno-trap protease assay, pH 5.0 (negative control) (relative fluorescence)",[1],35000
same,"relative fluorescent product release, anti-FLAG immuno-trap protease assay, pH 6.0 (negative control) (relative fluorescence)",[1],28200
same,"relative fluorescent product release, anti-FLAG immuno-trap protease assay, pH 7.0 (negative control) (relative fluorescence)",[1],26600
recombinant boPAG-6 (FLAG epitope tag fusion),proteolytic activity,[2],"recombinant boPAG-6, -8, -9 and -10 have proteolytic activity with acidic pH optima"
same,"relative fluorescent product release, anti-FLAG immuno-trap protease assay, pH 3.0 (relative fluorescence)",[2],84000
same,"relative fluorescent product release, anti-FLAG immuno-trap protease assay, pH 4.0 (relative fluorescence)",[2],77900
same,"relative fluorescent product release, anti-FLAG immuno-trap protease assay, pH 5.0 (relative fluorescence)",[2],66300
same,"relative fluorescent product release, anti-FLAG immuno-trap protease assay, pH 6.0 (relative fluorescence)",[2],31300
same,"relative fluorescent product release, anti-FLAG immuno-trap protease assay, pH 7.0 (relative fluorescence)",[2],24300
recombinant bovine PAG-12 (fusion protein with the FLAG peptide),proteolytic activity (% relative activity),[2],maximal activity for boPAG-12 and poPAG-2 was at pH 3.5
recombinant boPAG-8 (FLAG epitope tag fusion),proteolytic activity,[2],"recombinant boPAG-6, -8, -9 and -10 have proteolytic activity with acidic pH optima"
same,"relative fluorescent product release, anti-FLAG immuno-trap protease assay, pH 3.0 (relative fluorescence)",[2],80600
same,"relative fluorescent product release, anti-FLAG immuno-trap protease assay, pH 4.0 (relative fluorescence)",[2],63600
same,"relative fluorescent product release, anti-FLAG immuno-trap protease assay, pH 5.0 (relative fluorescence)",[2],56100
same,"relative fluorescent product release, anti-FLAG immuno-trap protease assay, pH 6.0 (relative fluorescence)",[2],31900
same,"relative fluorescent product release, anti-FLAG immuno-trap protease assay, pH 7.0 (relative fluorescence)",[2],26400
recombinant boPAG-10 (FLAG epitope tag fusion),proteolytic activity,[2],"recombinant boPAG-6, -8, -9 and -10 have proteolytic activity with acidic pH optima"
same,"relative fluorescent product release, anti-FLAG immuno-trap protease assay, pH 3.0 (relative fluorescence)",[2],52100
same,"relative fluorescent product release, anti-FLAG immuno-trap protease assay, pH 4.0 (relative fluorescence)",[2],42700
same,"relative fluorescent product release, anti-FLAG immuno-trap protease assay, pH 5.0 (relative fluorescence)",[2],38800
same,"relative fluorescent product release, anti-FLAG immuno-trap protease assay, pH 6.0 (relative fluorescence)",[2],26500
same,"relative fluorescent product release, anti-FLAG immuno-trap protease assay, pH 7.0 (relative fluorescence)",[2],23600
recombinant boPAG-9 (FLAG epitope tag fusion),proteolytic activity,[2],"recombinant boPAG-6, -8, -9 and -10 have proteolytic activity with acidic pH optima"
same,"relative fluorescent product release, anti-FLAG immuno-trap protease assay, pH 3.0 (relative fluorescence)",[2],72100
same,"relative fluorescent product release, anti-FLAG immuno-trap protease assay, pH 4.0 (relative fluorescence)",[2],55000
same,"relative fluorescent product release, anti-FLAG immuno-trap protease assay, pH 5.0 (relative fluorescence)",[2],48100
same,"relative fluorescent product release, anti-FLAG immuno-trap protease assay, pH 6.0 (relative fluorescence)",[2],27800
same,"relative fluorescent product release, anti-FLAG immuno-trap protease assay, pH 7.0 (relative fluorescence)",[2],24400
recombinant boPAG-17 (FLAG epitope tag fusion),"relative fluorescent product release, anti-FLAG immuno-trap protease assay, pH 3.0 (relative fluorescence)",[1],34600
same,"relative fluorescent product release, anti-FLAG immuno-trap protease assay, pH 4.0 (relative fluorescence)",[1],28600
same,"relative fluorescent product release, anti-FLAG immuno-trap protease assay, pH 5.0 (relative fluorescence)",[1],28500
same,"relative fluorescent product release, anti-FLAG immuno-trap protease assay, pH 6.0 (relative fluorescence)",[1],23300
same,"relative fluorescent product release, anti-FLAG immuno-trap protease assay, pH 7.0 (relative fluorescence)",[1],23700
rabbit immunoglobulins (background control) (antibody),relative fluorescence (counts) of released product,[3],6040 counts
anti-FLAG monoclonal antibody (M2; Sigma),relative fluorescence of released product (relative fluorescence),[4],4120
same,relative fluorescence of released product (relative fluorescence),[5],42300
same,relative fluorescence of released product (relative fluorescence),[6],27000
same,relative fluorescence of released product (relative fluorescence),[7],96800
same,relative fluorescence of released product (relative fluorescence),[8],7760
same,relative fluorescence of released product (relative fluorescence),[9],23000
same,relative fluorescence of released product (relative fluorescence),[10],26500
same,relative fluorescence of released product (relative fluorescence),[11],92300
same,relative fluorescent product release (relative fluorescence),[12],97400
same,relative fluorescent product release (relative fluorescence),[13],47000
recombinant boPAG-19 (FLAG epitope tag fusion),"relative fluorescent product release, anti-FLAG immuno-trap protease assay, pH 3.0 (relative fluorescence)",[1],40300
same,"relative fluorescent product release, anti-FLAG immuno-trap protease assay, pH 4.0 (relative fluorescence)",[1],32500
same,"relative fluorescent product release, anti-FLAG immuno-trap protease assay, pH 5.0 (relative fluorescence)",[1],32100
same,"relative fluorescent product release, anti-FLAG immuno-trap protease assay, pH 6.0 (relative fluorescence)",[1],24300
same,"relative fluorescent product release, anti-FLAG immuno-trap protease assay, pH 7.0 (relative fluorescence)",[1],23300
recombinant bovine PAG-2 (fusion protein with the FLAG peptide) (protein) DYKDDDDKIVILPLKKMKTLRETLREKNLLNNFLEEQAYRLSKNDSKITIHPLRNYLDTAYVGNITIGTPPQEFRVVFDTGSANLWVPCITCTSPACYTHKTFNPQNSSSFREVGSPITIFYGSGIIQGFLGSDTVRIGNLVSPEQSFGLSLEEYGFDSLPFDGILGLAFPAMGIEDTIPIFDNLWSHGAFSEPVFAFYLNTNKPEGSVVMFGGVDHRYYKGELNWIPVSQTSHWQISMNNISMNGTVTACSCGCEALLDTGTSMIYGPTKLVTNIHKLMNARLENSEYVVSCDAVKTLPPVIFNINGIDYPLRPQAYIIKIQNSCRSVFQGGTENSSLNTWILGDIFLRQYFSVFDRKNRRIGLAPAV,proteolytic activity (% relative activity),[14],Maximal activity for boPAG-2 was at pH 4
recombinant porcine PAG-2 (FLAG-tagged) (protein) DYKDDDDKLVMIPLTKVKSVRESLREKGLLKNFLKEHPYNMIQNLLSKNSSHVQKFSYQPLRNYLDMVYVGNISIGTPPQQFSVVFDTGSSDLWVPSIYCKSKACVTHRSFNPSHSSTFHDRGKSIKLEYGSGKMSGFLGQDTVRIGQLTSTGQAFGLSKEETGKAFEHAIFDGILGLAYPSIAIKGTTTVIDNLKKQDQISEPVFAFYLSSDKEEGSVVMFGGVDKKYYKGDLKWVPLTQTSYWQIALDRITCRGRVIGCPRGCQAIVDTGTSMLHGPSKAVAKIHSLIKHFEKEYVVPCNARKALPDIVFTINNVDYPVPAQAYIRKYVVPCNARKALPDIVFTINNVDYPVPAQAYIRKNANNNRCYSTFEDIMDTLNQREIWILGDVFLRLYFTVYDEGQNRIGLAQAT,proteolytic activity (% relative activity),[14],maximal activity for boPAG-12 and poPAG-2 was at pH 3.5
